Experimental findings from PMC2928020 are described below.

This assay deals with FITC-labeled alanine-extended version of the β2AR C-terminal peptide (TNDSLLA) (human). Put plainly: fluorescence polarisation. A general note: Polarisation of emitted light reports the rotation of a fluorescent probe.

In general, Kd refers to the concentration at which binding is half-saturated. In turn, “SNX27 PDZ domain, wild type (residues 39-131 of rat SNX27) (from UniProt Q8K4V4 39-131) (domain or fragment)” registered a Kd above 100 µM.
